In this assay the target is BCMA:APRIL 1:1 (human) (UniProt Q02223). As to the kind of experiment: BLI, His-tagged human BCMA on tip, then human APRIL 3000 nM, then IgG; KD cell N/A, R2 0.0887. On the technique in general: BLI is a label-free optical method that tracks binding on a fibre tip over time.
Chain of BCMA:APRIL 1:1 (human) (Q02223 1-54 limits assumed, chain 1 of 2): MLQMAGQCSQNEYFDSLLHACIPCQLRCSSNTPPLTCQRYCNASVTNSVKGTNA
Chain of BCMA:APRIL 1:1 (human) (O75888 115-250 limits assumed, chain 2 of 2, further chain): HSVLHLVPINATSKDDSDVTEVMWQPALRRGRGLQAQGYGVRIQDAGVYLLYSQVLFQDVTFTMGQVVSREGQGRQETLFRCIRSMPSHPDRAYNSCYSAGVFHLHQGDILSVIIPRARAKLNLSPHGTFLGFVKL

Regarding J6M0 (antibody), the BCMA:APRIL 1:1 response worked out at 0.18.

(Values after patent US20230374147A1.)
